Measurements: patent US6410255B1, “Optical probes and assays” (priority 1999, dated 2002)
Each block holds one sequence with its values, some of them ahead of it. Where no end group is shown, it is not given here. [ ]: non-standard residue; d: D form. pS = N[C@@H](COP(=O)(O)O)C(=O)O

Legend:
v-Abl kinase = target: T1, v-Abl kinase (Abelson murine leukemia virus, UniProt P00521); experiment: v-Abl kinase phosphorylation of optical probe, fluorescence readout after chymotrypsin; assay type: biochemical
T1 construct: purchased Calbiochem
T1 sequence (P00521 whole entry): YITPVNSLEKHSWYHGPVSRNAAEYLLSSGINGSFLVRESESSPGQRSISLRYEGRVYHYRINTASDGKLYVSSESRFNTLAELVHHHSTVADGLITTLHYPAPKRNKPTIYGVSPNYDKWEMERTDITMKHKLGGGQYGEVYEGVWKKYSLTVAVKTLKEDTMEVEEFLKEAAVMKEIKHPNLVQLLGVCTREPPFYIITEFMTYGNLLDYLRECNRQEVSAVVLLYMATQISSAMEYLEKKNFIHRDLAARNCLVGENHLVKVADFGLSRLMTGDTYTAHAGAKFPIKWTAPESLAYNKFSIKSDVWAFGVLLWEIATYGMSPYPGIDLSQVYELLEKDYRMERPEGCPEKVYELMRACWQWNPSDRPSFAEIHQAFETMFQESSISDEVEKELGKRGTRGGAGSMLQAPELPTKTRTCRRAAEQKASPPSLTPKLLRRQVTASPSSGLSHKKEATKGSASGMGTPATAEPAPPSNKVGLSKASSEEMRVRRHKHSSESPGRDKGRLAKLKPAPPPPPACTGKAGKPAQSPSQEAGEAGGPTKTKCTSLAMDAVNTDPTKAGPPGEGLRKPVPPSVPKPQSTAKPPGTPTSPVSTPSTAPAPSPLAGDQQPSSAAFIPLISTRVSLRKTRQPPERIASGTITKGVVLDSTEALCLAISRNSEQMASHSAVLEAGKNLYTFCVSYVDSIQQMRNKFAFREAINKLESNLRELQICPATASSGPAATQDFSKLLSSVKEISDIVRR

chymotrypsin [1] = target: T2, chymotrypsin (Bos taurus, UniProt P00766); experiment: Chymotrypsin cleavage of phosphorylated and non-phosphorylated tyrosine kinase optical probes; assay type: biochemical, bovine; set-up: purchased Calbiochem 230832
chymotrypsin [2] = target: T2, chymotrypsin; experiment: Chymotrypsin cleavage of optical probe with or without casein kinase 1 phosphorylation; assay type: biochemical
From the text: To measure casein kinase 1 activity, an optical probe was designed as described above. In this case, the kinase substrate was designed so that the point of phosphorylation was located at the P′2 position (underlined in SEQ. I.D. NO: 17 below) with respect to the scissile bond cleaved by chymotrypsin, which enables the creation of a recognition motif suitable for casein kinase 1. A substrate peptide ([…], SEQ. ID. NO: 17) was synthesized and labeled with fluorescein isothiocyanate at the N-terminus and 7-hydroxycoumarin-3-carboxamide at the C-terminus as described in Example 1.
Samples of phosphorylated and non-phosphorylated optical probes were prepared and tested as described in Example 1. In this case, complete phosphorylation of the optical probe (1 μM) was obtained after room temperature incubation for 15 to 30 minutes in the presence of 500 Units of casein kinase 1 (New England BioLabs) in 50 mM Tris-Cl, pH 7.5, 10 mM MgCl2, 5 mM DTT, and 200 μM ATP.
To determine the relative proteolytic sensitivity of phosphorylated and non-phosphorylated optical probes, samples of both were incubated with various concentrations of chymotrypsin and the cleavage monitored by measuring the 460/530 emission ratio as described in Example 1.

[3] = target: protein phosphatase I (PPI) (Homo sapiens, UniProt P62136); experiment: Protein phosphatase I dephosphorylation of optical probe; assay type: biochemical
protein phosphatase I (PPI), sequence (P62136 whole entry): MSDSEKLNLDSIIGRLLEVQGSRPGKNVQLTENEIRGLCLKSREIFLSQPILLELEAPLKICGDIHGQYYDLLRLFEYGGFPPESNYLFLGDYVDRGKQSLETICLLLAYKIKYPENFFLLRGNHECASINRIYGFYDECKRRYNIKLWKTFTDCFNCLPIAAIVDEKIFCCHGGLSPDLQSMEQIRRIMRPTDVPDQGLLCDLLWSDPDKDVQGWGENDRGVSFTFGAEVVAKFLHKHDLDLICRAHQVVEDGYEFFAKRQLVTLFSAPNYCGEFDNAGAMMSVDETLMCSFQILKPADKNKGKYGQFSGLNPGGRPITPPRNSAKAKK
Protocol: To determine if the optical probes could be used to detect serine/threonine phosphatase activities, samples of the casein kinase 1 specific phosphorylated optical probes were prepared and treated with various serine/threonine protein phosphatases. To do this, the casein kinase 1 optical probe ([…], SEQ. ID. NO: 17) (100 μM) was phosphorylated to completion with CKI (2000 units) in a 100 μL reaction containing 200 μM ATP for 5 hours at 30° C. A mock kinase reaction was performed which contained no ATP for preparation of control, non-phosphorylated optical probes. The resistance of the phosphorylated optical probe to chymotrypsin cleavage (data not shown) confirmed complete phosphorylation of the CKI-treated optical probe. Phosphorylated and non-phosphorylated samples of the optical probe (2 μM) were incubated in a 50 μL volume with or without 1 unit of the serine/threonine phosphatase protein phosphatase I (PPI) for 2 hours at 30° C. in a buffer consisting of 50 mM Tris-Cl, pH 7.0, 0.1 mM EDTA, 5 mM DTT, 0.01% Brij-35, and 1 mM MnCl2. The reactions were diluted to 100 μL with 50 mM HEPES, pH 7.5, incubated with chymotrypsin (0.2 μM) for 1 hour at room temperature, and fluorescence values were measured on the Cytofluor as described above. Before chymotrypsin addition all reactions had similar 460/530 ratios of about 1.2.

[4] = target: protein phosphatase 2A (PP2A) (Homo sapiens, UniProt P67775); experiment: Protein phosphatase 2A dephosphorylation of optical probe; assay type: biochemical; details: 1.5 hour chymotrypsin incubation
protein phosphatase 2A (PP2A), sequence (P67775 whole entry): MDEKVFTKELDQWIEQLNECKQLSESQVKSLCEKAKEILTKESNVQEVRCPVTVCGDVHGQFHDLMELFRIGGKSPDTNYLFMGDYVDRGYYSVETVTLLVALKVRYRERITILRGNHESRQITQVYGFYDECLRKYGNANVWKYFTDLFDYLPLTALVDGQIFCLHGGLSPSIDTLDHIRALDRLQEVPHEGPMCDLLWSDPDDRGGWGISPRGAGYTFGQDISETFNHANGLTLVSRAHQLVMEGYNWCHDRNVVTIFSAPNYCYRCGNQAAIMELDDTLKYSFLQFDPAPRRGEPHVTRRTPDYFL
Protocol: The optical probes were also evaluated to determine if they could be used to measure protein phosphatase 2A (PP2A) activity. Phosphorylated and non-phosphorylated samples of the CKI optical probes ([…]) were prepared and incubated with 0.03 units of PP2A as described above, except MnCl2 was not included. After dilution and addition of chymotrypsin as described above, fluorescence values were measured using a 96 well plate reader (Cytofluor). After a 1.5 hour chymotrypsin incubation, the 460/530 emission ratio of the phosphorylated optical probe was 1.8±0.2 (Table 18).

PP1 = PP1 (Homo sapiens, UniProt P62136); experiment: PP1 inhibitor assay with optical probe; assay type: biochemical; details: no inhibitor; chymotrypsin 0.2 μM, 2 hour
PP1, sequence (P62136 whole entry): as the sequence (P62136 whole entry) above
Protocol: To determine if the optical probe protein phosphatase assay could detect inhibitors of PP1, the phosphatase assay was performed in the presence or absence of 1 μM microcystin-LR, a potent inhibitor of PP1. Phosphatase assays were set up as described above except the phosphatase was allowed to pre-incubate with microcystin-LR for 10 minutes before the addition of phosphorylated or non-phosphorylated optical probes (SEQ. ID. NO: 23). PP1 reactions were incubated at 30 C for 1 hour and then diluted to 100 μL in 50 mM HEPES, pH 7.5 followed by the addition of chymotrypsin to 0.2 μM. Fluorescence values were measured on the Cytofluor after a 2 hour incubation at room temperature as described above. After treatment of the phosphorylated optical probe with PP1 followed by chymotrypsin, the 460/530 ratio was 13.2±0.2. […] Thus, the present invention could be used to detect inhibitors of PP1 activity.

PP2A = PP2A (Homo sapiens, UniProt P67775); experiment: PP2A inhibitor assay with optical probe; assay type: biochemical; details: no inhibitor
PP2A, sequence (P67775 whole entry): as the sequence (P67775 whole entry) above
Protocol: To determine if the optical probe phosphatase assay could detect inhibitors of PP2A, the phosphatase assay was performed in the presence or absence of 100 nM microcystin-LR. PP2A assays were set up as described above, and were incubated at 30 C for 2 hours. Reactions were diluted to 100 μL with 50 mM HEPES, pH 7.5 followed by the addition of chymotrypsin to 0.2 μM. Fluorescence values were measured on the Cytofluor after a 1.5 hour incubation at room temperature. As described above, treatment of the phosphorylated optical probe (SEQ. ID. NO: 23) with PP2A followed by chymotrypsin gave a final 460/530 ratio of 8.8±0.1. […] Thus, the optical probe based phosphatase assay can detect inhibitors of PP2A activity.

chymotrypsin [5] = target: T2, chymotrypsin; experiment: Chymotrypsin cleavage of optical probe with or without ERK phosphorylation; assay type: biochemical; details: for 460/530 Emission Ratio, Negative Control (No Active Kinase) / 460/530 Emission Ratio, Positive Control (Active Kinase): 4 nM chymotrypsin
Protocol: This substrate (100 μM) was phosphorylated by incubation at 30 C for 3 hours in a 100 μL reaction containing 500 ng ERK (Biomol) and 500 μM ATP in a buffer consisting of 50 mM Tris-Cl, pH 7.5, 10 mM MgCl2, 1 mM EGTA, 2 mM DTT, and 0.01% Brij-35. To test the proteolytic sensitivity of phosphorylated and non-phosphorylated samples, 2 μL of the mock (no kinase) or kinase reaction was diluted to 100 μL in a buffer containing 50 mM HEPES, pH 7.5, 10 mM CaCl2, and 0.01% Brij-35, and incubated with chymotrypsin at a concentration of 4 nM. Cleavage reactions were monitored on the Cytofluor for 1 hr. […] The maximum fold difference in 460/530 ratio was about 15.2 and occurred after 30 minutes of cleavage.

Sequence: AEAIYAAPL [abl substrate]
turnover of the optical probe by v-Abl (v-Abl kinase): 9.5 s⁻¹
Km (v-Abl kinase; read-out: apparent Km for the substrate): 40 µM
difference in emission ratios of phosphorylated (non-cleaved) and non-phosphorylated (cleaved) substrate (chymotrypsin [1]): 30 fold

Sequence: GDQDYLSLDK (GDQDYL[pS]LDK; also: FITC and hydroxycoumarin carboxamide labels, places not given here) [casein kinase 1 optical probe, peptide labeled with fluorescein isothiocyanate and 7-hydroxycoumarin-3-carboxamide; casein kinase 1 substrate]
460/530 Emission Ratio, Negative Control (No Active Kinase) (chymotrypsin [2]; chymotrypsin 0.04 μM): 3.0
460/530 Emission Ratio, Positive Control (Active Kinase Only) (chymotrypsin [2]; chymotrypsin 0.04 μM): 1.2
Fold difference in ratios (chymotrypsin [2]; chymotrypsin 0.04 μM): 2.5
460/530 Emission Ratio, Negative Control (No Active Kinase) (chymotrypsin [2]; chymotrypsin 0.1 μM): 6.6
460/530 Emission Ratio, Positive Control (Active Kinase Only) (chymotrypsin [2]; chymotrypsin 0.1 μM): 1.4
Fold difference in ratios (chymotrypsin [2]; chymotrypsin 0.1 μM): 4.7
460/530 Emission Ratio, Negative Control (No Active Kinase) (chymotrypsin [2]; chymotrypsin 0.2 μM): 10.9
460/530 Emission Ratio, Positive Control (Active Kinase Only) (chymotrypsin [2]; chymotrypsin 0.2 μM): 1.7
Fold difference in ratios (chymotrypsin [2]; chymotrypsin 0.2 μM): 6.4
460/530 Emission Ratio, Negative Control (No Active Kinase) (chymotrypsin [2]; chymotrypsin 0.3 μM): 12.3
460/530 Emission Ratio, Positive Control (Active Kinase Only) (chymotrypsin [2]; chymotrypsin 0.3 μM): 1.9
Fold difference in ratios (chymotrypsin [2]; chymotrypsin 0.3 μM): 6.5
460/530 Emission Ratio, Negative Control (No Active Kinase) (chymotrypsin [2]; chymotrypsin 0.4 μM): 14.3
460/530 Emission Ratio, Positive Control (Active Kinase Only) (chymotrypsin [2]; chymotrypsin 0.4 μM): 2.3
Fold difference in ratios (chymotrypsin [2]; chymotrypsin 0.4 μM): 6.2
460/530 Emission Ratio, Negative Control (No Active Kinase) (chymotrypsin [2]; chymotrypsin 1.0 μM): 15.4
460/530 Emission Ratio, Positive Control (Active Kinase Only) (chymotrypsin [2]; chymotrypsin 1.0 μM): 3.8
Fold difference in ratios (chymotrypsin [2]; chymotrypsin 1.0 μM): 4.1
460/530 Emission Ratio, Negative Control (No Active Kinase) (chymotrypsin [2]; chymotrypsin 2.0 μM): 15.6
460/530 Emission Ratio, Positive Control (Active Kinase Only) (chymotrypsin [2]; chymotrypsin 2.0 μM): 6.0
Fold difference in ratios (chymotrypsin [2]; chymotrypsin 2.0 μM): 2.6
460/530 Emission Ratio After Chymotrypsin, Phosphorylated Control + Phosphatase (PP1) ([3]; 1 unit PPI, 2 hours at 30° C., chymotrypsin 0.2 μM, 1 hour): 10.0
460/530 ratio before chymotrypsin addition ([3]; all reactions): about 1.2
460/530 Emission ratio After Chymotrypsin, Non-phosphorylated Control ([3]; chymotrypsin 0.2 μM, 1 hour): 9.8
460/530 Emission ratio After Chymotrypsin, Phosphorylated Control ([3]; chymotrypsin 0.2 μM, 1 hour): 2.0
460/530 Emission ratio After Chymotrypsin, Phosphorylated Control + Phosphatase (PP2A) ([4]; 0.03 units PP2A): 8.8 ± 0.1
460/530 Emission ratio After Chymotrypsin, Non-phosphorylated Control [4]: 11.0 ± 0.1
460/530 Emission ratio After Chymotrypsin, Phosphorylated Control [4]: 1.8 ± 0.2
460/530 ratio After Chymotrypsin, Non-phosphorylate Optical probe + PP1 (PP1): 13.2 ± 0.1
460/530 ratio After Chymotrypsin, Phosphorylated Optical probe + PP1 (PP1): 13.2 ± 0.2
460/530 ratio Before Chymotrypsin, Non-phosphorylate Optical probe + PP2A (PP2A): 1.4 ± 0.0
460/530 ratio Before Chymotrypsin, Phosphorylated Optical probe + PP2A (PP2A): 1.3 ± 0.0
460/530 ratio After Chymotrypsin, Non-phosphorylate Optical probe + PP2A (PP2A; chymotrypsin 0.2 μM, 1.5 hour): 11.1 ± 0.1
460/530 ratio After Chymotrypsin, Phosphorylated Optical probe + PP2A (PP2A; chymotrypsin 0.2 μM, 1.5 hour): 8.8 ± 0.1

460/530 Emission Ratio, Negative Control (No Active Kinase) (chymotrypsin [5]; time of cleavage 0 min): 0.28
460/530 Emission Ratio, Positive Control (Active Kinase) (chymotrypsin [5]; time of cleavage 0 min): 0.33
460/530 Emission Ratio, Negative Control (No Active Kinase) (chymotrypsin [5]; time of cleavage 10 min): 4.17
460/530 Emission Ratio, Positive Control (Active Kinase) (chymotrypsin [5]; time of cleavage 10 min): 0.44
460/530 Emission Ratio, Negative Control (No Active Kinase) (chymotrypsin [5]; time of cleavage 20 min): 7.56
460/530 Emission Ratio, Positive Control (Active Kinase) (chymotrypsin [5]; time of cleavage 20 min): 0.56
460/530 Emission Ratio, Negative Control (No Active Kinase) (chymotrypsin [5]; time of cleavage 30 min): 10.03
460/530 Emission Ratio, Positive Control (Active Kinase) (chymotrypsin [5]; time of cleavage 30 min): 0.66
460/530 Emission Ratio, Negative Control (No Active Kinase) (chymotrypsin [5]; time of cleavage 40 min): 11.71
460/530 Emission Ratio, Positive Control (Active Kinase) (chymotrypsin [5]; time of cleavage 40 min): 0.78
460/530 Emission Ratio, Negative Control (No Active Kinase) (chymotrypsin [5]; time of cleavage 50 min): 12.73
460/530 Emission Ratio, Positive Control (Active Kinase) (chymotrypsin [5]; time of cleavage 50 min): 0.89
460/530 Emission Ratio, Negative Control (No Active Kinase) (chymotrypsin [5]; time of cleavage 60 min): 13.40
460/530 Emission Ratio, Positive Control (Active Kinase) (chymotrypsin [5]; time of cleavage 60 min): 1.00
Fold difference in ratios (chymotrypsin [5]; time of cleavage 0 min): 0.85
Fold difference in ratios (chymotrypsin [5]; time of cleavage 10 min): 9.45
Fold difference in ratios (chymotrypsin [5]; time of cleavage 20 min): 13.55
Fold difference in ratios (chymotrypsin [5]; time of cleavage 30 min): 15.16
Fold difference in ratios (chymotrypsin [5]; time of cleavage 40 min): 14.99
Fold difference in ratios (chymotrypsin [5]; time of cleavage 50 min): 14.34
Fold difference in ratios (chymotrypsin [5]; time of cleavage 60 min): 13.36
Sequence: VAPFSPGGRAK [optical probe designed as a substrate for extracellular signal-regulated kinase (ERK)]
